{"source": "patent US20100183640A1", "binders": {"B1": {"name": "recombinant human uteroglobin (ligand)", "chain": "EICPSFQRVIETLLMDTPSSYEAAMELFSPDQDMREAGAQLKKLVDTLPQKPRESIIKLMEKIAQSSLCN"}}, "target": "purified human fibronectin (hFn), from human plasma (human) (UniProt P02751)", "assay": "cell-based or functional assay"}
{"binder": "B1", "values": [{"measurement": "% Inhibition of adhesion of NIH-3T3 cells to hFn-coated wells (50 ng rhUG)", "result": 54, "unit": "%"}, {"measurement": "Percent Inhibition of cellular adhesion to fibronectin, Hela cell line (50 ng)", "result": -5, "unit": "%"}, {"measurement": "Percent Inhibition of cellular adhesion to fibronectin, NIH-3T3 cell line (50 ng)", "result": 54, "unit": "%"}]}
